From the supplement of paper PMC9170038

Test system: MS2 coat protein
Test: apparent KD of MS2 coat protein; designed switch direction (-1 OFF switch, 1 ON switch): 1; higher = weaker reporter binding
Summary of the method: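 The reported apparent KD is a per-design median over clusters, from curve fits of normalised cluster fluorescence. Protein titrations used SNAP-549-labelled MS2 coat protein, doubled from 0.7 or 1.5 nM to 3 µM, in Tris-HCl pH 7.5 buffer with KCl, MgCl2, BSA, DTT, tRNA and Tween-20, with no input, 200 uM small-molecule ligand, or an oligonucleotide input. The RNA switches were transcribed on Illumina chips by stalled E. coli RNA polymerase.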

[1] = Eterna round: R95, input ligand: FMN 200 uM
[2] = Eterna round: R95, input ligand: microRNA oligo, concentration not stated
[3] = Eterna round: R95, input ligand: none
[4] = input ligand: microRNA oligo, concentration not stated

Sequence | apparent KD of MS2 coat protein [1] | apparent KD of MS2 coat protein [2] | apparent KD of MS2 coat protein [3] | apparent KD of MS2 coat protein (input ligand: FMN 200 uM) | apparent KD of MS2 coat protein [4] | apparent KD of MS2 coat protein (input ligand: none)
AGUCCAGCAAGAGCUGGACAAAAGCAUGUACAUGAGGAUCACCCAUGUCAUGUACAAGCUUUUUGCUCGUCUUAAAA [Mat - hsa-mir-208a - Mod of JL - D3] (puzzle: Sensor for hsa-mir-208a) | 456 nM | 16 nM | 729 nM | – | – | –
AGUCCAGCCAGAGCUGGACAAAAGCAUGUACAUGAGGAUCACCCAUGUCAUGUACAAGCUUUUUGCUCGUCUUAAUA [Mat - hsa-mir-208a - Mod of JL - D37] (puzzle: Sensor for hsa-mir-208a) | 632 nM | 15.4 nM | 621 nM | – | – | –
AGUCCAGCCAGAGCUGGACAAAAGCAUGUACAUGAGGAUCACCCAUGUUCAUGUACAAGCUUUUUGCUCGUCAAAAG [Mat - hsa-mir-208a - Mod of JL - 69] (puzzle: Sensor for hsa-mir-208a) | 304 nM | 17.7 nM | 233 nM | – | – | –
AGUCCAGCCUGAGCUGGACAAAAGCAUGUACAUGAGGAUCACCCAUGUCAUGUACAAGCUUUUUGCUCGAAAUAAUA [Mat - hsa-mir-208a - Mod of JL - D32] (Eterna round: R96, puzzle: Sensor for hsa-mir-208a) | – | – | – | 626 nM | 14.4 nM | 561 nM
AGUCCAGCCUGAGCUGGACAAAAGCAUGUACAUGAGGAUCACCCAUGUCAUGUACAAGCUUUUUGCUCGAAAUAAUA [Mat - hsa-mir-208a - Mod of JL - D32] (puzzle: Sensor for hsa-mir-208a) | 653 nM | 14.6 nM | 938 nM | – | – | –
AGUCCAGCCUGAGCUGGACAAAAGCAUGUACAUGAGGAUCACCCAUGUCAUGUACAAGCUUUUUGCUCGUAAUAAUA [Mat - hsa-mir-208a - Mod of JL - D31] (puzzle: Sensor for hsa-mir-208a) | 301 nM | 12.4 nM | 477 nM | – | – | –
AGUCCAGCCUGAGCUGGACAAAAGCAUGUACAUGAGGAUCACCCAUGUCGUGUACAAGCUUUUUGCUCGUCUUAAUA [Zipper 49 - 4] (puzzle: Sensor for hsa-mir-208a) | 285 nM | 13.5 nM | 311 nM | – | – | –
AGUCCAGCCUGAGCUGGACAAAAGCGUGUACAUGAGGAUCACCCAUGUUCAUGUACAAGCUUUUUGCUCGUCUUAAA [Zipper 52 - 6] (puzzle: Sensor for hsa-mir-208a) | 25.7 nM | 20 nM | 127 nM | – | – | –
AGUCCAGCGAAAGCUGGACAGAAGCAUGUACAUGAGGAUCACCCAUGUUCAUGUACAAGCUUUUUGCUCGUCUUAAA [JL mod - D95 - 1] (puzzle: Sensor for hsa-mir-208a) | 476 nM | 14.9 nM | 418 nM | – | – | –
AGUGGUGGUGCAGGAUAUGCCUCAAAAGCAUGGGUAGAAGGGCAAUACAAAGAAACUCUGACAUGAGGAUCACCCAUGUAGCAA [Eternabot solution 43] (Eterna round: R96, puzzle: Same State NG 1) | – | – | – | 449 nM | 241 nM | 395 nM
AGUUGUGGGAAACUAUAGCAGACGCUCGUACAUGAGGAUCACCCAUGUCUUGUAGGAGCUGUUUGCUCGUUUUAUGG [ak 1 mod of one Eli's designs.] (puzzle: Sensor for hsa-mir-208a) | 62.8 nM | 50.1 nM | – | – | – | –
AUAAAACAUGAGGAUCACCCAUGUUAACAAAGUCGAGGAUAUGGGCAAAUAAAAUAAGAACCAGAAGGCGAAUAAU [salish99_ss1_r3_045] (puzzle: Same State 1) | 16.8 nM | 27.9 nM | 27.7 nM | – | – | –
AUAAAAGAAAGAAACACAUGAGGAUCACCCAUGUAACGACUACAGGAUAUGCUGCACAGUCCAAAGCAGAAGGGUGGUCAAAAC [Qulaesed] (Eterna round: R96, puzzle: Same State NG 3) | – | – | – | 280 nM | 111 nM | 102 nM
AUAAACAGGCUAGGAUAUCCGGAAACUACAGGACACGACCCUGUGGACAUGAGGAUCACCCAUGUGGAGAAGGAGCCACAUGAA [Onvete] (Eterna round: R96, puzzle: Same State NG 2) | – | – | – | 31.4 nM | 223 nM | 145 nM
AUAAGUUCGAUGCUCGUCUCUCCGUACAAACAUGAGGAUCACCCAUGUGAUUGGACAAAAGCCCAAUCAGUAUGGCC [Cebeince] (puzzle: Sensor for hsa-mir-208a) | 35.9 nM | 21.4 nM | 40.9 nM | – | – | –
AUAAUACAUGAGGAUCACCCAUGUCAACAAAGUCGAGGAUAUGGGCAAAUAAAAUAAGAACCAGAAGGCGAAUAAU [salish99_ss1_r3_046] (puzzle: Same State 1) | 34.2 nM | 359 nM | 240 nM | – | – | –

Sequence | apparent KD of MS2 coat protein [1] | apparent KD of MS2 coat protein [2] | apparent KD of MS2 coat protein [3] | apparent KD of MS2 coat protein (input ligand: FMN 200 uM) | apparent KD of MS2 coat protein [4] | apparent KD of MS2 coat protein (input ligand: none)
AUACCAUCAGGAGGAUAUGGCACCUUAUUGGUGCCAGAAGGUCUAACAUGAGGAUCACCCAUGUGGGAGUGGUCUAAUGACCAC [Eli NG1ss - 86] (Eterna round: R96, puzzle: Same State NG 1) | – | – | – | 73.7 nM | 72.3 nM | 91 nM
AUAGUUUCCGAAGGAUAUGAUGAGGAUCACCCAUCAGAAGGUUGGCUAUUGGGCUGACAUGAGGAUCACCCAUGUUUCGGUGUU (Eterna round: R96, puzzle: Same State NG 1) | – | – | – | 33 nM | 29.1 nM | 41.4 nM
AUAUAACAUGAGGAUCACCCAUGUCUCUAAAGUCGAGGAUAUGGGCAGGUUAUAUCCGAACCAGAAGGCGGGUUAU [SS1 Teenbexe 8] (Eterna round: R96, puzzle: Same State 1) | – | – | – | 1020 nM | 287 nM | 554 nM
AUAUAACAUGAGGAUCACCCAUGUCUCUAAAGUCGAGGAUAUGGGCAGGUUAUAUCCGAACCAGAAGGCGGGUUAU [SS1 Teenbexe 8] (puzzle: Same State 1) | 177 nM | 123 nM | 146 nM | – | – | –
AUAUGAGGAGCAGGAUAUGCGAAGAAGAAAGAAGUAGAAGGGCUCAUGGGACGACAUGAGGAUCACCCAUGUACUUCCCGAUGA [AK SSNG1-V2-7] (Eterna round: R96, puzzle: Same State NG 1) | – | – | – | 24.6 nM | 26.6 nM | 37.7 nM
AUCCGAACCAUAGGAUAUACUGGCCUCGGGCCAGUAGAAGGGUGGGACAUGAGGAUCACCCAUGUAAAGCACAAUCAGUGCAAA [Ceramace] (Eterna round: R96, puzzle: Same State NG 1) | – | – | – | 167 nM | 119 nM | 151 nM
AUGAAGAAUUAAGGAUAUUGAUUACAUAUGUUUAACAUGAGGAUCACCCAUGUGGGUUGCGGUAUCGAGAAGGUAAAUUAAAAG [Mat - same State NG 2 - JL mod - D88] (Eterna round: R96, puzzle: Same State NG 2) | – | – | – | – | 156 nM | –
AUGACAUGCACAGGAUAUUAGGCGCAGUACAGAUAAGAAGGGUGGAUCAGCAUACAUGAGGAUCACCCAUGUUGUUGUAACAUG [Same State 1 S2] (Eterna round: R96, puzzle: Same State NG 1) | – | – | – | – | 252 nM | –
AUGAUUAAUGCAGGAUAUGAUUAACAUGAGGAUCACCCAUGUGGUGUUGUGAGUAAGGAGAGUGAUCAGAAGGGCAUUUUUUUU [JMF's solution 34] (Eterna round: R96, puzzle: Same State NG 2) | – | – | – | 731 nM | 430 nM | 701 nM
AUUAAACAUGAGGAUCACCCAUGUCAACAAAGUCGAGGAUAUGGGCAUAUUAUCUAAUAACCAGAAGGCGAAUAAU [salish99_ss1_r3_085] (Eterna round: R96, puzzle: Same State 1) | – | – | – | – | 177 nM | –
AUUAAACAUGAGGAUCACCCAUGUCAACAAAGUCGAGGAUAUGGGCAUAUUAUCUAAUAACCAGAAGGCGAAUAAU [salish99_ss1_r3_085] (puzzle: Same State 1) | 43.8 nM | 194 nM | 210 nM | – | – | –
AUUACUAGCAUAGGAUAUCAUGCGAAAAUUGCGUGAGAAGGGUGGACGCUGUCAUUCACGGAAGACAUGAGGAUCACCCAUGUC [SameState NG1 #74] (Eterna round: R96, puzzle: Same State NG 1) | – | – | – | 142 nM | 68.5 nM | 94 nM
AUUAGUAAUGCAGGAUAUGAUUAACAUGAGGAUCACCCAUGUGGUGUUGUGAGUAAGGAGAGUGAUCAGAAGGGCAUUUUUUUU [JMF's solution 28] (Eterna round: R96, puzzle: Same State NG 2) | – | – | – | 979 nM | 411 nM | 444 nM
AUUAUACAUGAGGAUCACCCAUGUAAUUAAUCUAGUAAGAUCUAGGAUAUCAGCUCGUUUAGAGCUGAGAAGGAGAUCACAUGU [SSNG3/20-D3] (Eterna round: R96, puzzle: Same State NG 3) | – | – | – | – | 38 nM | –
AUUAUACAUGAGGAUCACCCAUGUAAUUAAUUAAUUAAGAUCUAGGAUAUCAGCUCGAAUAGAGCUGAGAAGGAGAUCACAUGU [SSNG3/20-C1] (Eterna round: R96, puzzle: Same State NG 3) | – | – | – | – | 24.2 nM | –
AUUAUACAUGAGGAUCACCCAUGUCAACAAAGUCGAGGAUAUGGGCAAAUAAAAUAAGAACCAGAAGGCGAAUAAU [salish99_ss1_r3_069] (Eterna round: R96, puzzle: Same State 1) | – | – | – | 69.2 nM | 189 nM | 293 nM
